Experimental data as given in patent publication US20160347802A1 (MAX PLANCK GESELLSCHAFT ZUR FOERDERUNG DER WISSENSCHAFTEN E …, published 2016).

T1: human Netrin-G1, AVEXIS protein (human, UniProt Q9Y2I2 29-510)
T1 construct: not shown: AVEXIS tag (bait or prey)
T1 sequence (looked up): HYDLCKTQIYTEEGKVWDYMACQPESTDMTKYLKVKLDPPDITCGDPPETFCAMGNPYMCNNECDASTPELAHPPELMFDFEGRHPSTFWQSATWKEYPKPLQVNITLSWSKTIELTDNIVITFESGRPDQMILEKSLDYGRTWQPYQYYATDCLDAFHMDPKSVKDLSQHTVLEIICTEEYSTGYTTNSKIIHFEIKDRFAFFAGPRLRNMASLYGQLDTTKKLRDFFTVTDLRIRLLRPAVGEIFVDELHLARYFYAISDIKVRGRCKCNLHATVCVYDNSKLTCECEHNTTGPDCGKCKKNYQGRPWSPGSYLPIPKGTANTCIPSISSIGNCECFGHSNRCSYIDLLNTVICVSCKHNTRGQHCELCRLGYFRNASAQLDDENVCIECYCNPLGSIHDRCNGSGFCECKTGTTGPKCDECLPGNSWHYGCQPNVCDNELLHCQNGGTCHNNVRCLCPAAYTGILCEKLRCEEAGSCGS

T2: human Netrin-4, AVEXIS protein (human, UniProt Q9HB63 19-628)
T2 construct: not shown: AVEXIS tag (bait or prey)
T2 sequence (looked up): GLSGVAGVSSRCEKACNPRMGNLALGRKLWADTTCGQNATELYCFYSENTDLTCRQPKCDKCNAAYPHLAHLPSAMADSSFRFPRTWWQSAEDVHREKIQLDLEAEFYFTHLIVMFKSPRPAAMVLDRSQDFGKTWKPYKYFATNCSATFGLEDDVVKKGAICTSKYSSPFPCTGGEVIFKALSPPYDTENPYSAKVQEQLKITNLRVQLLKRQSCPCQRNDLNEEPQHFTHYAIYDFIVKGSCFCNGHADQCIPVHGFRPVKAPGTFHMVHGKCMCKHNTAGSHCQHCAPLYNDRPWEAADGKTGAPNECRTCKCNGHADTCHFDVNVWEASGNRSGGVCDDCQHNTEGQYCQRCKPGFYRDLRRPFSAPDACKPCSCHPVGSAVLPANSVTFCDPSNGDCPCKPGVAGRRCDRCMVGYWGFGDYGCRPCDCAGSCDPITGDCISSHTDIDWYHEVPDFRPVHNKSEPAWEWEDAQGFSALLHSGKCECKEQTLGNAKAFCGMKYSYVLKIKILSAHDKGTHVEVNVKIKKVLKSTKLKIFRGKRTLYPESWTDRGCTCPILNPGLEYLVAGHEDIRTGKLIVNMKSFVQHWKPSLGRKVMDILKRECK

T3: human Netrin-G2, AVEXIS protein (human, UniProt Q96CW9 18-507)
T3 construct: not shown: AVEXIS tag (bait or prey)
T3 sequence (looked up): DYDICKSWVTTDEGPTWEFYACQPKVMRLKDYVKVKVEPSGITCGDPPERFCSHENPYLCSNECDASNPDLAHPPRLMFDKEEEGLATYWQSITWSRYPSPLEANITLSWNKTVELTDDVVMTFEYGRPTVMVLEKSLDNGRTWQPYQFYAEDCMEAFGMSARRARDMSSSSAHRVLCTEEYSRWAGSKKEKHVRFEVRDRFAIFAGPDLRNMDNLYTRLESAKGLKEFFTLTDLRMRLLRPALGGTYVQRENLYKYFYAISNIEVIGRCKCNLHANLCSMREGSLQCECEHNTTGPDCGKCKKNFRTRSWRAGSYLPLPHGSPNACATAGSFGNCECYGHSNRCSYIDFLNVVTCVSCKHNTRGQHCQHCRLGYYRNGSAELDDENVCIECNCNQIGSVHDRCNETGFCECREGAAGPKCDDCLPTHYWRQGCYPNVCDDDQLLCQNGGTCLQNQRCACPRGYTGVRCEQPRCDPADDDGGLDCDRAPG

T4: human DRAXIN, AVEXIS prey or bait protein (human, UniProt Q8NBI3 26-349)
T4 sequence: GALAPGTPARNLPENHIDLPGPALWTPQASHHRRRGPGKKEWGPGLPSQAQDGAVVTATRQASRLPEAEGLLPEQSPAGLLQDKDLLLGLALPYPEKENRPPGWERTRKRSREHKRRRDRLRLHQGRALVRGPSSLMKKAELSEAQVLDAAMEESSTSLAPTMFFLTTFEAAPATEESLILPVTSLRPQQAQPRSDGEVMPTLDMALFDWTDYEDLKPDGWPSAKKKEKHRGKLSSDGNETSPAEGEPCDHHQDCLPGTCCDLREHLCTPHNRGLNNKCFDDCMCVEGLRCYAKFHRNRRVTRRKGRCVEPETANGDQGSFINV


Assays:
[1] = biological target: T5, human Netrin1, recombinant AVEXIS protein (biotinylated when immobilised) (human, UniProt O95631 25-604); experiment: SPR, Biacore 3000, biotinylated human Netrin1 on SA chip, Draxin injected at 0-18.8 nM
T5 construct: also called NTN1

[2] = biological target: T6, biotinylated recombinant human UNC5B (human, UniProt Q8IZJ1 27-377); experiment: SPR, UNC5B immobilised, Draxin injected at 0 to 18.75nM
T6 construct: Made in HEK293-6E and immobilised on an SA chip

[3] = biological target: the molecule itself; experiment: AVEXIS, prey DRAXIN 21aa on bait DRAXIN 21aa
Source text: (§1) The Matn4-bait served as an internal prey-protein control and was used for normalization of the A486 nm values; conditioned medium (CM) serves as negative control; n=3.

[4] = biological target: T1, human Netrin-G1, AVEXIS protein; experiment: AVEXIS, prey on bait NTNG1; white = No binding
Source text: as §1

[5] = biological target: T2, human Netrin-4, AVEXIS protein; experiment: AVEXIS, prey NTN4 on bait DRAXIN 21aa
Source text: as §1

[6] = biological target: T3, human Netrin-G2, AVEXIS protein; experiment: AVEXIS, prey NTNG2 on bait DRAXIN 21aa
Source text: as §1

[7] = biological target: T2, human Netrin-4, AVEXIS protein; experiment: AVEXIS, prey on bait NTN4; white = No binding
Source text: as §1

[8] = biological target: T4, human DRAXIN, AVEXIS prey or bait …; experiment: AVEXIS, prey on bait DRAXIN; white = No binding
Source text: as §1

[9] = biological target: T6, biotinylated recombinant human UNC5B; experiment: AVEXIS, prey DRAXIN 21aa on bait UNC5B
Source text: as §1

[10] = biological target: T6, biotinylated recombinant human UNC5B; experiment: AVEXIS, prey on bait UNC5B; white = No binding
Source text: as §1

[11] = biological target: T1, human Netrin-G1, AVEXIS protein; experiment: AVEXIS, prey NTNG1 on bait DRAXIN 21aa
Source text: as §1

[12] = biological target: T7, Matn4 ECD, mono-biotinylated bait protein (positive control); experiment: AVEXIS, prey on bait Matn4 (+), positive control for the prey; dark = Binding
T7 construct: extracellular domain; also called Matn4-bait
Source text: as §1

[13] = biological target: T3, human Netrin-G2, AVEXIS protein; experiment: AVEXIS, prey on bait NTNG2; white = No binding
Source text: as §1

[14] = biological target: T5, human Netrin1, recombinant AVEXIS …; experiment: AVEXIS, prey on bait NTN1; dark = Binding
Source text: as §1

[15] = biological target: T4, human DRAXIN, AVEXIS prey or bait …; experiment: AVEXIS, prey DRAXIN on bait DRAXIN 21aa
Source text: as §1

[16] = biological target: the molecule itself; experiment: AVEXIS, prey on bait DRAXIN 21aa; white = No binding
Source text: as §1

Kd [1]	binding result [2]	A486nm [4]	binding result [5]	binding result [6]	A486nm [7]	A486nm [8]	binding result [9]	A486nm [10]	binding result [11]	A486nm [12]	A486nm [13]	A486nm [14]	binding result [15]	Binder	binding result [3]	A486nm [16]
20 to 100 nM	no binding (tested: 18.75 nM)													recombinant human Draxin (R&D systems) (ligand, Bought protein) GALAPGTPARNLPENHIDLPGPALWTPQASHHRRRGPGKKEWGPGLPSQAQDGAVVTATRQASRLPEAEGLLPEQSPAGLLQDKDLLLGLALPYPEKENRPPGWERTRKRSREHKRRRDRLRLHQGRALVRGPSSLMKKAELSEAQVLDAAMEESSTSLAPTMFFLTTFEAAPATEESLILPVTSLRPQQAQPRSDGEVMPTLDMALFDWTDYEDLKPDGWPSAKKKEKHRGKLSSDGNETSPAEGEPCDHHQDCLPGTCCDLREHLCTPHNRGLNNKCFDDCMCVEGLRCYAKFHRNRRVTRRKGRCVEPETANGDQGSFINV		
		0.066	no binding	no binding	0.063	0.063	no binding	0.062	no binding	0.252	0.062	0.342	no binding	EVMPTLDMALFDWTDYEDLKP (Tested in both bait and prey orientations; also called human 21 amino acid DRAXIN fragment; derived 21 amino acid peptide; not shown: AVEXIS tag (rat Cd4d3+4 and prey or bait module)) [human DRAXIN 21 amino acid Netrin binding fragment, AVEXIS prey or bait protein]	no binding	0.059
